In patent US20160208003A1 (AFFITECH RESEARCH, published 2016):
Substitutions are numbered along the chain they refer to.

What was measured:
[1] = target: T1, human CC chemokine receptor 4 (CCR4) (human, UniProt P51679 1-360); assay: calculated from the IC50; CCRF-CEM cells, competitor biotinylated MDC
T1 construct: whole, on cells; Always presented on cells; also called CD194; human CCR4
T1 sequence (looked up): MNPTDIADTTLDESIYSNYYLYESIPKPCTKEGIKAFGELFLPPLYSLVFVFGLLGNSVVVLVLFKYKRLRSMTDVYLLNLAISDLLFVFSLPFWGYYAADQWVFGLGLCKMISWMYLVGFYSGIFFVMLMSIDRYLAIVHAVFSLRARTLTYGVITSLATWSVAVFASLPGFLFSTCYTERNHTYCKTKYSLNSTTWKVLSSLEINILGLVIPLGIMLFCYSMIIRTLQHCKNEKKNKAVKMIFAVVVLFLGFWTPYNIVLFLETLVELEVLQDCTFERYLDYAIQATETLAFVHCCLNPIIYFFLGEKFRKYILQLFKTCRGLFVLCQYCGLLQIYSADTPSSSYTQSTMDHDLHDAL
Description: (§1) The competition binding assays were performed with biotinylated MDC or biotinylated TARC on DT-40-CCR4+ and CCRF-CEM cells. DT40 and CCRF-CEM cells were cultured as described in Example 2. TARC and MDC were biotinylated using standard procedures. The biotinylation process causes some losses, so the concentrations of biotinylated MDC and TARC recited herein are approximate.
(§2) The cells were harvested from culture flasks, washed 2 times with PBS (400×g, 5 min, 4° C.) and resuspended in PBS containing 0.2% BSA and 0.09% NaN3. 1×10^5 cells per well were aliquoted into V-shaped 96-well plates (Greiner Bio-One, Frikenhausen, Germany). Cells were centrifuged (400×g, 5 min, 4° C.) and resuspended in 50 μl IgG, single chain or unlabeled ligand (1:10 dilution series starting on 100/500/26, 4 μg/ml) mixed with a fixed concentration of biotinylated ligand (10 or 20 nM, see legend to FIG. 24). The cells were incubated for 2 hours at 4° C. and mixed with a pipette every 45 min. The cells were washed three times with 150 μl PBS with 0.2% BSA and 0.09% NaN3 and stained with 3 μg/ml streptavidin PE (BD Biosciences) for 45 minutes at 4° C. […] Apparent binding affinities (KD) were calculated according to the following equation derived from previously described methods (Kipriyanov et al, 1997b; Schodin & Kranz, 1993): […]

[2] = target: T1, human CC chemokine receptor 4 (CCR4); assay: calculated from the IC50 (KD=IC50/(1+[bio-MDC]/KD MDC)); DT-40-CCR4+ cells, competitor biotinylated MDC
[3] = target: T1, human CC chemokine receptor 4 (CCR4); assay: flow cytometry competition on CCRF-CEM cells; IgG titrated, competitor biotinylated MDC (ca. 10 or 20 nM); second of three IC50 values on CCRF-CEM cells; inhibition of biotinylated MDC
Description: as §1, §2

[4] = target: T1, human CC chemokine receptor 4 (CCR4); assay: flow cytometry, IgG titration on CCRF-CEM cells; one site-specific binding fit (Prism)
Description: (§3) The IgG forms of antibodies 17G, 9E and KM3060var using various CCR4⁺ cell types were used (see Example 2).
(§4) For the flow cytometry experiments, the cells were harvested from the culture flasks, washed 2 times with PBS, re-suspended in PBS with 0.2% BSA and 0.09% NaN₃ and finally aliquoted 1×10⁵ cells per well into V-shaped 96-well plates (Greiner Bio-One, Frickenhausen, Germany). Cells were centrifuged at 400×g for 5 min and then incubated at 4° C. for 45 min with different antibody dilutions.
(§5) After washing with PBS with 0.2% BSA and 0.09% NaN₃, the cells were stained with 10 μg/ml of RPE-conjugated goat anti-human IgG (AbDSerotec, Düsseldorf, Germany) for 30 minutes at 4° C. The stained cells were washed, re-suspended in 200 μl PBS with 0.2% BSA and 0.09% NaN₃ and transferred to a U-shaped 96-well plate (Corning, Schiphol-Rijk, The Netherlands) for acquisition on EasyCyte flow cytometer (Guava Technologies, Hayward, Calif., USA).

[5] = target: T1, human CC chemokine receptor 4 (CCR4); assay: flow cytometry, IgG titration on CCR4+ DT40 cells; one site-specific binding fit (Prism)
Description: as §3, §4, §5

[6] = target: T1, human CC chemokine receptor 4 (CCR4); assay: flow cytometry, IgG titration on CCRF-CEM cells (natural CCR4+), triplicates, RPE goat anti-human IgG, Median (YLW-HLog)
From the text: As a positive control, in-house cloned and expressed KM3060var IgG which is specific for an epitope present in positions 2-29 in N-terminal part of human CCR4 (EP1270595) was used. An anti-GFP antibody (raised against the green fluorescent protein) or the anti-VZV antibody (raised against Varicella zoster virus) were used as negative controls (anti-GFP both as scFv and IgG, while anti-VZV only as scFv).
as §4, §5

[7] = target: T1, human CC chemokine receptor 4 (CCR4); assay: competition flow cytometry on CCR4-transfected DT40 cells: unlabelled IgG against 7 nM biotinylated 9E IgG, streptavidin-RPE
Description: To analyze the epitope binding of anti-CCR4 antibodies 17G, 9E and KM3060var, competition experiments were performed using flow cytometry. The binding of biotinylated antibodies to CCR4 transfected DT40-cells was challenged in the presence of different concentrations of non-biotinylated anti-CCR4 antibodies. The CCR4⁺ DT40 cells were harvested from culture flasks, washed 2 times with PBS, re-suspended in PBS with 0.2% BSA and 0.09% NaN₃ and finally aliquoted 1×10⁵ cells per well into V-shaped 96-well plates (Greiner Bio-One, Frickenhausen, Germany). Cells were centrifuged at 400×g for 5 min and then incubated at 4° C. for 3-4 hours with fixed amounts of biotinylated IgG and different concentrations of non-biotinylated antibodies. After washing with PBS with 0.2% BSA and 0.09% NaN₃, the cells were stained with 2.5 μg/ml of Streptavidin—RPE (BD Pharmingen, San Diego, Calif., USA) for 30 minutes at 4° C. The stained cells were washed, re-suspended in 250 μl PBS with 0.2% BSA and 0.09% NaN₃ and transferred to a U-shaped 96-well plate (Corning, Schiphol-Rijk, The Netherlands) for acquisition on EasyCyte flow cytometer (Guava Technologies, Hayward, Calif., USA). The results shown in FIGS. 10 A, B and C illustrate that the 17G and 9E antibodies have epitopes that are identical or at least overlapping.

B1: 9E10J IgG (full length human IgG1, lambda) (antibody, V domains shown)
VH: QVQLVQSGAEVKKPGSSVKVSCKASGGTFSSYAISWVRQAPGQGLEWMGGIIPIFGTANYAQKFQGRVTMTRDTSTSTVYMELSSLRSEDTAVYYCARRGGSYFDYWGQGTLVTVSS
VL: SYVLTQPPSASGTPGQSVTISCSGSTSNIGSHYVFWYQQLPGTAPRLLIYRNHQRPSGVPDRLSGSKSGTSASLAISGLRSEDEADYYCAVWDDTLSGWVFGGGTKLTVLG
notes: also called IgG 9E10J; unmodified 9E10J
- Kd [1]: 0.2 nM
- Kd [2]: 0.01 nM
- IC50 [3]: 6.28 nM

B2: 9E IgG (full length human IgG1, lambda) (antibody, V domains shown)
VH: B1 VH with S31N, M70I, R72A, T74E, V79A
VL: B1 VL
notes: also called IgG 9E; IgG1 9E
- Kd [4]: 0.39 nM
- Kd [5]: 0.72 nM
- EC50 (read off the curve) [6]: ~0.4 nM
- IC50 (read off the curve) [7]: ~3 nM
